The record followed here is article PMC12499500.

For this experiment, the target named is drosophila GABAB2 subunit, EM construct (residues 24–790) (Drosophila melanogaster) (UniProt Q9BML6).
Sequence of drosophila GABAB2 subunit, EM construct (residues 24–790) (Drosophila melanogaster) (Q9BML6 entry or part of it): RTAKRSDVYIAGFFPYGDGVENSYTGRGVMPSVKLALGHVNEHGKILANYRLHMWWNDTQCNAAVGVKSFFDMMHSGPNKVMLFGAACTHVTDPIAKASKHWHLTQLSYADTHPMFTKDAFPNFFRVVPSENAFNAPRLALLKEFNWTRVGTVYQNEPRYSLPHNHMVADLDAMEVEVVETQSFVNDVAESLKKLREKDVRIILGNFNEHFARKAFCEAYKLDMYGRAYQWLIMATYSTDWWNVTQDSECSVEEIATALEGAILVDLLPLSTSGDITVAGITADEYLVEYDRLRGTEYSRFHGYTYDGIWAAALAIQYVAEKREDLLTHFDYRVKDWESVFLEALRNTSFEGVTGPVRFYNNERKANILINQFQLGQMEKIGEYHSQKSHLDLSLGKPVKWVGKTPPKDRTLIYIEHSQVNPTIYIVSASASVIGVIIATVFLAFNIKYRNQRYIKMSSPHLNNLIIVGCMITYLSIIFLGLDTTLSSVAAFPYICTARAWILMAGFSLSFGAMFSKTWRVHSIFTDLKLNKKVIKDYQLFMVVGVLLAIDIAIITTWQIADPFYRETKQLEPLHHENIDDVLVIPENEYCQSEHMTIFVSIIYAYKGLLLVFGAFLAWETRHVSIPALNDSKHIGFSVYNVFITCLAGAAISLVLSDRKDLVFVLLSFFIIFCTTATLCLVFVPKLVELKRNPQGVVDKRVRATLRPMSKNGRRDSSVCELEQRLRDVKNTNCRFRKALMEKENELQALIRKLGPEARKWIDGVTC

“dGB1^I (V658L) (from UniProt Q9BML7 1-840) (receptor)” showed a basal IP1 accumulation (constitutive activity), HEK293 cells co-transfected with the dGB1 mutant and wild-type dGB2, against the wild-type receptor (% increase in IP1 accumulation) of 50. The substance “dGB1^I-II (V658L, F659L) (from UniProt Q9BML7 1-840) (receptor)” displayed a basal IP1 accumulation (constitutive activity), HEK293 cells co-transfected with the dGB1 mutant and wild-type dGB2, against dGB1^III (% increase in IP1 accumulation) of 17. “dGB1^I-II-III (V658L, F659L, E666A, H566A) (from UniProt Q9BML7 1-840) (receptor)” returned a basal IP1 accumulation (constitutive activity), HEK293 cells co-transfected with the dGB1 mutant and wild-type dGB2, against dGB1^III (% increase in IP1 accumulation) of 22. In the case of “dGB1^II (F659L) (from UniProt Q9BML7 1-840) (receptor)”, the basal IP1 accumulation (constitutive activity), HEK293 cells co-transfected with the dGB1 mutant and wild-type dGB2, against the wild-type receptor (% increase in IP1 accumulation) stood at 66.

On to “dGB1^III (E666A and H566A) (from UniProt Q9BML7 1-840) (receptor)”, for which the basal IP1 accumulation (constitutive activity), HEK293 cells co-transfected with the dGB1 mutant and wild-type dGB2, against the wild-type receptor (% increase in IP1 accumulation) was determined as 59.
